Consider 27 sequences from the domain aggregation screens of Martell et al. (2025).

This data set in a line: soluble fraction after stress (log2 fold change); higher = more stays soluble; pooled small domains, quantitative proteomics. The following applies: stress: pH 4. A digest of the protocol:
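Custom libraries of small protein domains were pooled and exposed to pH 4. High-throughput quantitative proteomics then measured the log2 fold change in the amount of each domain still soluble, with higher values meaning more stayed soluble. This soluble-fraction fold change stands for aggregation propensity.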
“HMGLWWTEAERELVKTTIEQLYKDTNIAEPVDSKNLRASIPALKAMRTGLSAENQARVDTLLGALQV”: the “soluble fraction (log2)” value was -0.915.

In the case of “HMGMAGILDSARMASFIQEKLGYGGGQIRASVMGGHGDDMVPLPRYSTVAGVPLSDVLTQNEIDEMFAQ”, the “soluble fraction (log2)” value is -0.259.

With “HMGMDALIGRRVFVSEEILPGDTGGRMAVDGDSWRAISVGTASNIPAGTEVRIRGHQSLVLEVEP”, the “soluble fraction (log2)” value was -0.629.

Consider “HMGMEENLLKERKQILMDIMKSKEYQPMKVKELAMVLNVPKEDREELRYVLNELMNEGKIVESKKGKFSIA”, for which the “soluble fraction (log2)” value stood at 0.0605.

For the sequence “HMGMESFWNRVANLLNTSTVVELAQILDVKRSTLSSWIHSDRRPPMEVLLKITRLTGVDIHRLE”, the “soluble fraction (log2)” value was -0.576.

For “HMGMETQLSPKEKSIYTIIQNRPNIQSGEVSEKLAIPLPTVKRILSDLINKGLIEKQGSGRNVSYTI”, the “soluble fraction (log2)” value was 0.241.

As for “HMGMFNENLRFLRQKRQMSQQAFASILGIPRTTYSEYEKGNTEPNLKLLIRLSELLDVSLDNLISDDLTHN”, the “soluble fraction (log2)” value is -0.642.

As for “HMGMKTSQKLARQREIVRLIRAQTIRTQAELADALRERAFPVSQPTLSKDIAELGLIKVPLPDSGYRYQLP”, the “soluble fraction (log2)” value was -0.105.

“HMGMNKEHFIIELKIYLKALNPKDQAIILAKYKALFDARVAEGETEEQVAKSLGKPRVIAEEILKEQGIE”: the “soluble fraction (log2)” value is at least 0.43.

Regarding “HMGMSMNEFLNNRLEQLAVEAVDKSSLGEEIFFYAEPATINLFKDAVDEDEYKVVFPVLKSIIEVEQKLSR”, the “soluble fraction (log2)” value was -1.69.

For the sequence “HMGMTAPIPGVVLKVSVLPGQKVERGDELLTIEAMKMFNVMRSPSSGTIATVHIKDGDRVVQGQPLVTFA”, the “soluble fraction (log2)” value was 0.113.

Regarding “HMGMTTSILDDVIGMGPKRKKALLKAFGSFGALRNATLEEIKQTHTVPEQVAEDVYAVLVQYNSKSE”, the “soluble fraction (log2)” value is -0.171.

Take “HMGMVKLNEEYLEKVKKHRKELHITQLQISKKLGWSLSRYQRFESGFYKEIEDDAPKKIKEEFGIDYSLL”: the “soluble fraction (log2)” value is -0.231.

For “HMGNGALLTLTVKERQVIQLVAEGKSNKQIARDLNVTPETIKSHMKNIFAKLKVDNRAQAAVMVQQ”, the “soluble fraction (log2)” value was determined as 0.0874.

Regarding “HMGNGDTNERIATLMQILAKQESIINQYGLENPVVSPQMYVRTLKKVVELSGFKDASSYFADIPDGWKA”, the “soluble fraction (log2)” value was found to be 0.0699.

For the sequence “HMGNIADARRDASYVFLIGEWAKSSNLTEKKLAGLIQSNHLDIKYGITVTDVIADIRKYKNDPTYNPF”, the “soluble fraction (log2)” value was 0.312.

Take “HMGNIKVPSVMGMTLEGAEKVAKDNGAVIEVLEYKESTEEDGTIIEQSPKADMTVATLEKISVVISGK”: the “soluble fraction (log2)” value was determined as 0.0995.

With “HMGNIYKALLGKLEKQLGFLPEGTKLPPEQELAEKFGVSKPTLRRALAELAVRGIIVKQNGIGSVVAGS”, the “soluble fraction (log2)” value is at least 0.43.

With “HMGNKKLVLKLSKKLIKIPSFLNIYSVKLTKNGRELEINLDKSQNEAIDIINLIKKNNISFLEFDIKKR”, the “soluble fraction (log2)” value is 0.015.

As to “HMGNLIIFYDAQTGSAPLLKAVKTSGATLVYEYKNLHGIAIRPSSKTSIEDAIAYFKKVNGVLSVE”, the “soluble fraction (log2)” value is 0.0783.

Consider “HMGNPSGLPLPRFASTRSEPINVRVGPGQKYDIAWTYLKSGIPVEIIQEFDTWRKIRDFDGAEGWIHQNLL”, for which the “soluble fraction (log2)” value is -0.398.

As to “HMGNSRNDQDLQTQIIKILAEGPASSRTLIETLTIEDEAALLKTLKRLLMNKKISLTPSNLYKL”, the “soluble fraction (log2)” value was -0.66.

Consider “HMGPAAGVVEKYNLAHLSTGEMIRKEIAEGSDFGKMAAGIINKGELLSDEFVVALIENSIEHHKNVDGFLF”, for which the “soluble fraction (log2)” value was -0.22.

As to “HMGPAVGAIRVEGNKRVEPETVRTYLTFNVGDPYDLAKVDESLKALFATGLFQDVRIRREGNTVVIVVVEN”, the “soluble fraction (log2)” value was -1.07.

As to “HMGPAYQTQRQEAFAALSEIAAKNPQLMQVAGDLVFRAADFPMADELADRLAKTLPPQLQDKKGQP”, the “soluble fraction (log2)” value was -0.313.

For the sequence “HMGPEISEDAKVVFDRLKNHDEILLNNFKSEFDLSNKKWDKIIKELRGNDLISIIKSEDGNLFIKP”, the “soluble fraction (log2)” value is -0.293.

Consider “HMGPELGENEKLIFDIIKKESKMELGILKAQVDLSNKKWDKALKGLATHGLTKVNKTDDGLFIELI”, for which the “soluble fraction (log2)” value is -0.942.
